± gives the uncertainty stated by the source.
B1: Protein maelstrom homolog, residues 3 to 71; numbered along this chain, Q96JY0 (parent)
chain: NRKASRNAYYFFVQEKIPELRRRGLPVARVADAIPYCSSDWALLREEEKEKYAEMAREWRAAQGKDPGP

Variants of: B1
Experiment: abundance fitness (aPCA) (normalised: wild type 0, dead -1); higher = more abundant; growth selection in yeast, the domain comes from the species named
Conditions: Homo sapiens
With NRKASRNAYYKFVQEKIPELRRRGLPVARVADAIPYCSSDWALLREEEKEKYAEMAREWRAAQGKDPGP [F11K] the abundance fitness was -0.94 ± 0.2.
Variant NRKASRNAYGFFVQEKIPELRRRGLPVARVADAIPYCSSDWALLREEEKEKYAEMAREWRAAQGKDPGP [Y10G] has an abundance fitness of -0.5 ± 0.07.
Variant NRKASRNAYYFFVQEKIPELRRRGLPVARVADAIPYCSSDWALLREEEKEKYAEMAREWRAAQDKDPGP [G64D] has an abundance fitness of 0.207 ± 0.091.
Work on NRKASRNAYYFFVQEKIPELRRRGLPVARVADAIPYCSSDWALLREEEKEKYAEMAIEWRAAQGKDPGP [R57I] yielded an abundance fitness of -0.398 ± 0.42.
NNKASRNAYYFFVQEKIPELRRRGLPVARVADAIPYCSSDWALLREEEKEKYAEMAREWRAAQGKDPGP [R2N] showed an abundance fitness of -0.2 ± 0.12.
Work on NRKASRNFYYFFVQEKIPELRRRGLPVARVADAIPYCSSDWALLREEEKEKYAEMAREWRAAQGKDPGP [A8F] yielded an abundance fitness of -0.936 ± 0.46.
For NRKASRNAYYFFVQEKIPELRRRGLPVARVADAIPYCSSDWALLREEEKEKYAEMWREWRAAQGKDPGP [A56W], the abundance fitness was -0.236 ± 0.05.
In the case of NRKASRNALYFFVQEKIPELRRRGLPVARVADAIPYCSSDWALLREEEKEKYAEMAREWRAAQGKDPGP [Y9L], the abundance fitness is reported as -0.007 ± 0.035.
NRKASRNAYYFFVQEKIPEGRRRGLPVARVADAIPYCSSDWALLREEEKEKYAEMAREWRAAQGKDPGP [L20G] showed an abundance fitness of -0.739 ± 0.068.
Work on NRKASRNAYYFFVQEKIPELRRRGLPVARVADAIPYCSSDWALHREEEKEKYAEMAREWRAAQGKDPGP [L44H] yielded an abundance fitness of -1 ± 0.32.
NRKAIRNAYYFFVQEKIPELRRRGLPVARVADAIPYCSSDWALLREEEKEKYAEMAREWRAAQGKDPGP [S5I] showed an abundance fitness of 0.278 ± 0.32.
NRKASRNAYYFFVQEKIPEVRRRGLPVARVADAIPYCSSDWALLREEEKEKYAEMAREWRAAQGKDPGP [L20V] gave an abundance fitness of -0.677 ± 0.08.
Work on NRKASRNAYYFFVQEKIEELRRRGLPVARVADAIPYCSSDWALLREEEKEKYAEMAREWRAAQGKDPGP [P18E] yielded an abundance fitness of -0.306 ± 0.1.
Work on NRKASRNAYYFFVQEKIPELRRRGLPVARVADAIPYCSSDWALLREEEKEKYAEMAREWRAAQGKAPGP [D66A] yielded an abundance fitness of -0.148 ± 0.071.
Variant NRKASRNAYYFFVQEKIPELRRRGLPVARVADAIPYCSSDWALLREEEKEKYAEMAREWRAAQGKTPGP [D66T] has an abundance fitness of 0.173 ± 0.12.
NRKASRNAYYFFVQEKIPELRRRGLPVARVADAIPYCFSDWALLREEEKEKYAEMAREWRAAQGKDPGP [S38F] showed an abundance fitness of -0.223 ± 0.2.
NRKASRNAYYFFVQEKIPELRRRGLPVACVADAIPYCSSDWALLREEEKEKYAEMAREWRAAQGKDPGP [R29C] gave an abundance fitness of 0.118 ± 0.1.
In the case of NRKASRNAYYFFVQEKIPELRRRGLPVARVAAAIPYCSSDWALLREEEKEKYAEMAREWRAAQGKDPGP [D32A], the abundance fitness is reported as -0.421 ± 0.076.
Variant NRKASRNAYYFFVQEKIPELRRRGLPKARVADAIPYCSSDWALLREEEKEKYAEMAREWRAAQGKDPGP [V27K] has an abundance fitness of -0.744 ± 0.17.
NRKASRNAVYFFVQEKIPELRRRGLPVARVADAIPYCSSDWALLREEEKEKYAEMAREWRAAQGKDPGP [Y9V] gave an abundance fitness of -0.222 ± 0.074.
For NRKASCNAYYFFVQEKIPELRRRGLPVARVADAIPYCSSDWALLREEEKEKYAEMAREWRAAQGKDPGP [R6C], the abundance fitness was -0.123 ± 0.18.
In the case of NRKASRNAYYFFVQEKIPELRRRGLPVARVADAIPYCSSYWALLREEEKEKYAEMAREWRAAQGKDPGP [D40Y], the abundance fitness is reported as -0.48 ± 0.36.
Variant NRKASRNAYYFFVQEWIPELRRRGLPVARVADAIPYCSSDWALLREEEKEKYAEMAREWRAAQGKDPGP [K16W] has an abundance fitness of -0.819 ± 0.18.
Work on NRKASRNAYYFFVQEKIPELRRRGLPVARQADAIPYCSSDWALLREEEKEKYAEMAREWRAAQGKDPGP [V30Q] yielded an abundance fitness of -0.567 ± 0.093.
NRKASRNHYYFFVQEKIPELRRRGLPVARVADAIPYCSSDWALLREEEKEKYAEMAREWRAAQGKDPGP [A8H] showed an abundance fitness of -0.498 ± 0.21.
NRKASRNAYYFFVQEKIPELRRRGLPVARVADAIPYCSSDWALLREEEKEKYAEMHREWRAAQGKDPGP [A56H] gave an abundance fitness of -0.087 ± 0.042.
NRKASRNAYYFFVQEKIPELGRRGLPVARVADAIPYCSSDWALLREEEKEKYAEMAREWRAAQGKDPGP [R21G] showed an abundance fitness of 0.058 ± 0.47.
Work on NRKSSRNAYYFFVQEKIPELRRRGLPVARVADAIPYCSSDWALLREEEKEKYAEMAREWRAAQGKDPGP [A4S] yielded an abundance fitness of 0 ± 0.092.
For NRKASRNAYYFFVQEKIPELRRHGLPVARVADAIPYCSSDWALLREEEKEKYAEMAREWRAAQGKDPGP [R23H], the abundance fitness was -0.467 ± 0.35.
Work on NMKASRNAYYFFVQEKIPELRRRGLPVARVADAIPYCSSDWALLREEEKEKYAEMAREWRAAQGKDPGP [R2M] yielded an abundance fitness of 0.093 ± 0.067.
For NRKASRNAYYFFVQEKIPELRRRGLPVARVADAIPYCSSDTALLREEEKEKYAEMAREWRAAQGKDPGP [W41T], the abundance fitness was -0.682 ± 0.11.
For NRKASRNAYYFFVMEKIPELRRRGLPVARVADAIPYCSSDWALLREEEKEKYAEMAREWRAAQGKDPGP [Q14M], the abundance fitness was -0.023 ± 0.074.
In the case of NRKASRNAYYFFVQEKIPELRRRGLPVARVADAIPYCSSDWAKLREEEKEKYAEMAREWRAAQGKDPGP [L43K], the abundance fitness is reported as -0.02 ± 0.097.
With NRKASRNAYYFFVQEKIPELRRRGLPVARVADAIPYCSSDWALLREEEKEKYAEMAREWRAAQGKDPNP [G68N] the abundance fitness was -0.459 ± 0.26.
Variant NRKASRNAYYFFVQEKIPELRRRGLPVARVADAIPYCSSDWALLREEEKEKYAEMAREWRAACGKDPGP [Q63C] has an abundance fitness of -0.255 ± 0.13.
NRKASRNAYYFFVQEKIPELRRRGLPVARVADAIPYCSSDWALLREEEKEKYAEMARYWRAAQGKDPGP [E58Y] showed an abundance fitness of -0.972 ± 0.39.
NRKASRNAYCFFVQEKIPELRRRGLPVARVADAIPYCSSDWALLREEEKEKYAEMAREWRAAQGKDPGP [Y10C] gave an abundance fitness of -0.643 ± 0.11.
NRKASRNADYFFVQEKIPELRRRGLPVARVADAIPYCSSDWALLREEEKEKYAEMAREWRAAQGKDPGP [Y9D] gave an abundance fitness of -0.185 ± 0.22.
NRKASRNAYYFFVQEKIPEQRRRGLPVARVADAIPYCSSDWALLREEEKEKYAEMAREWRAAQGKDPGP [L20Q] showed an abundance fitness of -0.797 ± 0.12.
